US20150125463A1

How the values were obtained:
[1] = target: human PD-L1 (antigen of the surface plasmon resonance analysis) (human) (UniProt Q9NZQ7); assay: surface plasmon resonance; KD given for clone 28-8 alone
[2] = target: human PD-L1 (on cells or in tissue) (human) (UniProt Q9NZQ7); assay: IHC histoscore (0-300), FFPE tumor Mel sample T030668; 28-8 at 2 ug/ml
[3] = target: human PD-L1 (on cells or in tissue) (human) (UniProt Q9NZQ7); assay: IHC histoscore (0-300), FFPE tumor Mel sample T980744; 28-8 at 2 ug/ml
[4] = target: human PD-L1 (on cells or in tissue) (human) (UniProt Q9NZQ7); assay: IHC histoscore (0-300), FFPE tumor Mel sample T980747; 28-8 at 2 ug/ml
[5] = target: human PD-L1 (on cells or in tissue) (human) (UniProt Q9NZQ7); assay: IHC histoscore (0-300), FFPE tumor Mel sample 1168657B; 28-8 at 2 ug/ml
[6] = target: human PD-L1 (on cells or in tissue) (human) (UniProt Q9NZQ7); assay: IHC histoscore (0-300), FFPE tumor RCC sample 1164619B; 28-8 at 2 ug/ml
[7] = target: human PD-L1 (on cells or in tissue) (human) (UniProt Q9NZQ7); assay: IHC histoscore (0-300), FFPE tumor RCC sample 1167809B; 28-8 at 2 ug/ml
[8] = target: human PD-L1 (on cells or in tissue) (human) (UniProt Q9NZQ7); assay: IHC histoscore (0-300), FFPE tumor NSCLC sample 1080790; 28-8 at 2 ug/ml
[9] = target: human PD-L1 (on cells or in tissue) (human) (UniProt Q9NZQ7); assay: IHC histoscore (0-300), FFPE tumor NSCLC sample 1080754B; 28-8 at 2 ug/ml
[10] = target: human PD-L1 (on cells or in tissue) (human) (UniProt Q9NZQ7); assay: IHC histoscore (0-300), FFPE tumor NSCLC sample 1080766B; 28-8 at 2 ug/ml
[11] = target: human PD-L1 (on cells or in tissue) (human) (UniProt Q9NZQ7); assay: IHC histoscore (0-300), FFPE tumor NSCLC sample 1080993B; 28-8 at 2 ug/ml
[12] = target: human PD-L1 (on cells or in tissue) (human) (UniProt Q9NZQ7); assay: IHC histoscore (0-300), FFPE tumor Mel sample T030668; 5H1 at 5 ug/ml
[13] = target: human PD-L1 (on cells or in tissue) (human) (UniProt Q9NZQ7); assay: IHC histoscore (0-300), FFPE tumor Mel sample T980744; 5H1 at 5 ug/ml
[14] = target: human PD-L1 (on cells or in tissue) (human) (UniProt Q9NZQ7); assay: IHC histoscore (0-300), FFPE tumor Mel sample 1168657B; 5H1 at 5 ug/ml
[15] = target: human PD-L1 (on cells or in tissue) (human) (UniProt Q9NZQ7); assay: IHC histoscore (0-300), FFPE tumor RCC sample 1164619B; 5H1 at 5 ug/ml
[16] = target: human PD-L1 (on cells or in tissue) (human) (UniProt Q9NZQ7); assay: IHC histoscore (0-300), FFPE tumor RCC sample 1167809B; 5H1 at 5 ug/ml
[17] = target: human PD-L1 (on cells or in tissue) (human) (UniProt Q9NZQ7); assay: IHC histoscore (0-300), FFPE tumor NSCLC sample 1080790; 5H1 at 5 ug/ml
[18] = target: human PD-L1 (on cells or in tissue) (human) (UniProt Q9NZQ7); assay: IHC histoscore (0-300), FFPE tumor NSCLC sample 1080754B; 5H1 at 5 ug/ml
[19] = target: human PD-L1 (on cells or in tissue) (human) (UniProt Q9NZQ7); assay: IHC histoscore (0-300), FFPE tumor NSCLC sample 1080766B; 5H1 at 5 ug/ml
[20] = target: human PD-L1 (on cells or in tissue) (human) (UniProt Q9NZQ7); assay: IHC histoscore (0-300), FFPE tumor NSCLC sample 1080993B; 5H1 at 5 ug/ml

Sequence of human PD-L1 (on cells or in tissue) (human) (Q9NZQ7 19-290): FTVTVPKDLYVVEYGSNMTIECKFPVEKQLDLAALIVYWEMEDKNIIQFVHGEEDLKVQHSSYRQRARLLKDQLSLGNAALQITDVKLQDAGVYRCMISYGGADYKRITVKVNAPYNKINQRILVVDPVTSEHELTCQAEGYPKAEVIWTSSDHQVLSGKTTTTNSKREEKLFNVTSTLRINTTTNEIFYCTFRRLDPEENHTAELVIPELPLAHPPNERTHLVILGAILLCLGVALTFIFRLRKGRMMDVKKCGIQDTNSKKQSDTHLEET
Sequence of human PD-L1 (antigen of the surface plasmon resonance analysis) (human) (Q9NZQ7 19-238 limits assumed): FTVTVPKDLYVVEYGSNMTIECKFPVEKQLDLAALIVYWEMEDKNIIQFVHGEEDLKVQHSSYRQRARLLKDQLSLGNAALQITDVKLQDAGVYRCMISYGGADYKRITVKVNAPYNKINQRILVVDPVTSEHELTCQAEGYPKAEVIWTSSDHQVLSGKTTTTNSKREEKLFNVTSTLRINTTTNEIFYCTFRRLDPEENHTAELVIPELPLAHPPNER

Row | Kd [1] | Histoscore Average [2] | Histoscore Average [3] | Histoscore Average [4] | Histoscore Average [5] | Histoscore Average [6] | Histoscore Average [7] | Histoscore Average [8] | Histoscore Average [9] | Histoscore Average [10] | Histoscore Average [11] | Histoscore Average [12] | Histoscore Average [13] | Histoscore Average [14] | Histoscore Average [15] | Histoscore Average [16] | Histoscore Average [17] | Histoscore Average [18] | Histoscore Average [19] | Histoscore Average [20] | Substance
1 | 0.1 nM | 113 | 123 | 9 | 0 | 4 | 125 | 37 | 261 | 130 | 16 |  |  |  |  |  |  |  |  |  | rabbit anti-human PD-L1 mAb 28-8 (antibody)
2 |  |  |  |  |  |  |  |  |  |  |  | 98 | 98 | 0 | 4 | 108 | 40 | 245 | 103 | 12 | murine anti-human PD-L1 mAb 5H1 (antibody)
